# In the nanobody polyreactivity screen of Harvey et al. (2022):
# Assay: yeast display, Sf9 membrane polyspecificity reagent, FACS + sequencing; frameworks hold sequencing errors
# How it was run: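 Galactose-induced (36–48 hours) yeast carrying a synthetic nanobody display library were exposed to 10% biotinylated, detergent-solubilized Sf9 membrane reagent at 4 °C for 1 hour. FACS followed streptavidin microbead enrichment, using low and high (top ~1%) gates for expression (anti-HA) and reagent binding (streptavidin). Colony PCR, MiSeq 2 × 250 sequencing and CDR-length filtering followed. Labels for polyreactivity reflect the gate of origin.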
row,Sequence,polyreactivity (PSR sort gate)
1,QVQLVESGGCLDQAGGRLRLSCAASGSTFYDYVMGWYRQAPGKERELVAVISSSGSTNYADSVKGRVTISRDNAKNTVYLQMNSLKPEDTAVYYCAVDPFRRWWETIFDEYDYWGQGTQVTVSS,low polyreactivity
2,QVQLVESGGCLFQAGGSLRLSCAASGSTFYWYTMGWYRQAHGKERELVSTMTTVGRTNYADSVKGRFTISRDNAKNTVYLQMKSLKPEVTAVYYCAASKARWPRGGCKYYYWRQGTQVTVSS,high polyreactivity
3,QVQLVESGGCLVHAGGSLRLSCAASGFTFRWYAMGWYRQAPGKERELVASISRRGGSTYYADSVKGRFTISRDNEKNTVYLQMNSLKPEDSAVYYCAADYYDYWGQGTQVTVSS,high polyreactivity
4,QVQLVESGGCLVQAGGILRLSCAASGSIFVGYDMGWYRQAPGKERELVAAITGTVSTYYADSVKGRFTISRDNAKNTVYLQMNSLKPEDTAVYYCAAEFVYAYGDGGVYWSWMEYWGQGTQVTVSS,low polyreactivity
5,QVQLVESGGCLVQAGGILRLSCAASGYTFFLYAMGWYRQAPGKERELVAAINNGGGSTYYADSVKGRFTISRDNAKNTVYLQMNSLKPEDTAVYYCAVRVARGYRYGYWGQGTQVTVSS,high polyreactivity
6,QVQLVESGGCLVQAGGRLRLSCAASGFTFGYYAMGWYIQAPGKERELVAAIDWSGGTTYYADSVKGRFTISRDNAKNTVYLQMNSLKPEDTAVYYCAADVVEEDDLEFYYWGQGTQVTVSS,high polyreactivity
7,QVQLVESGGCLVQAGGRLRLSCAASGRTFTGYTMGWYRQAPGKEREFVAAIRKSGGSTYYADSVKGRFTISRDNAKNTVYLQMNSLKPEDTAVYYCASRYRYYYTRYDYWGQGTQVTVSS,high polyreactivity
8,QVQLVESGGCLVQAGGSLPLSSAASGSTFSYNDMGSDRQAPGKARELVADINVSVGRTYYADSVKGRFTISRDNAKNTVYLQMNSLKPEDTAVYYCAKDYYRYHYYYCGQGTQVTVSS,low polyreactivity
9,QVQLVESGGCLVQAGGSLRFTCAASGSIFPYYAMGWYRQAPGKERELVAAISGSGGSTYYADSVTGRFTISRDNAKYTVYLQMNSLNQEDTAVYYCAARPFARYEYWGQGTQVTVSS,low polyreactivity
10,QVQLVESGGCLVQAGGSLRLICAASGGLFGTYTMGWYRQAPGKERELVAAIRSSSGRTYYADSVKGRFTISRDNAKNTVYLQMNILKPEDTAVYYCNAKYYGYRVGKYYPFGYWGQGTQVTVSS,high polyreactivity
11,QVQLVESGGCLVQAGGSLRLSCAASGFIFGSNVMGWYRQAPGKERELVAAISYSGASTYYADSVKGRFTISRDNAKNTVYLQMNSLKPEDTAVYYCNAESYYFYWPVYSYDYWGQGTQVTVSS,low polyreactivity
12,QVQLVESGGCLVQAGGSLRLSCAASGFTFGRYAMGWYRQAPGKEREFVAAISYTGTSTYYADSVKGRFTISRDNAKNTVYLQMNSLKPEDTAVYYCNAVHPGTVAYDSWGQGTQVTVSS,high polyreactivity
13,QVQLVESGGCLVQAGGSLRLSCAASGFTFGRYVMGWYRQAPGKERELVAGINQSGGRTNYADSVKGRFTISRDNAKNTVYLQMNSLKPEDTAVYYCAALRSWRKTGGAQRYWYDYWGQGTQVTVSS,high polyreactivity
14,QVQLVESGGCLVQAGGSLRLSCAASGGIFYPNAMGWYRQAPGKEREFVASITRSGGSTYYADSVKGRFTISRDNAKNTVYLQLNSLTPEDTAVYDCAAAYKSLYTYTRFYYWGQGTQVTVSS,high polyreactivity
15,QVQLVESGGCLVQAGGSLRLSCAASGLIFYENAMGWYRQAPGKERELVAAINYDGDSTYYADSVKGRFTISRDNAKITVYLQMNSLKPEDTAVYYCAADGGWVLFWMDYWGQGTQVTVSS,low polyreactivity
16,QVQLVESGGCLVQAGGSLRLSCAASGLTFRYYAMGWYRQAPGKERELVAAITASVGSTYYADSVKGRFTISRDNAKNTVYLQMNSLKPEDTAVYYCAADSEQDNLRYYRWVWYDYWGQGTQVTVSS,low polyreactivity
17,QVQLVESGGCLVQAGGSLRLSCAASGNTFTSYAMGWYRQAPGKERELVAAISASGSSTYYADSVKGRFTISRDNAKNTVYLQMNSLKPEDTAVYYCNAVKYRVESSYDYWGQGTQVTVSS,low polyreactivity
18,QVQLVESGGCLVQAGGSLRLSCAASGNTIIRYAMGWYRQAPGKERELVAAISYSGGRTYYADSVKGRFTISRDNAKNTVYLQMNSLKPVDNAVYYCNAASRYGGDYWGQGTQVTVSS,high polyreactivity
19,QVQLVESGGCLVQAGGSLRLSCAASGRIFGSYTKGWYRQAPGKERELVAAISDSGDSTYADSVKGRFTISRDNAKNTVYLQMNSLKPEDTAVYYCNAKSGSLAGNEYDYWGQGTQVTVSS,low polyreactivity
20,QVQLVESGGCLVQAGGSLRLSCAASGRIFRYNTMGWYRQAPGKEREFVASISNGGSTNYADSVKGRFTISRDNAKNTVYLQMNSLKPEDTAVYYCNADVPSDGYPGYPGGFESWGQGTQVTVSS,low polyreactivity
21,QVQLVESGGCLVQAGGSLRLSCAASGRIFYSYAMGWYRQAPGKERELVATISSGGSTNYADSVKGRFTISRDHAKNTVYLQMNSLKPEDTAVYFCAAADRLYWRGVIYRQYDYWGLGTQVTVSS,high polyreactivity
22,QVQLVESGGCLVQAGGSLRLSCAASGRIIYSNGMGWYRQAPGKERELVAAISSGGSTYYADSVKGRFTISRDNAKNTVYLQMNSLKPEDTAVYYCNKDYLLRHYYIYVIEGDYWGQGTQVTVSS,low polyreactivity

row,Sequence,polyreactivity (PSR sort gate)
1,QVQLVESGGCLVQAGGSLRLSCAASGRRVQTYAMGWYRQAPRKERELVAAISIRGGSTYYADSVKGRFTISRDNAKNTVYLQKNSLTPEDTAVYYCNALYGRQIVDYEYWGQGTQVTVSS,low polyreactivity
2,QVQLVESGGCLVQAGGSLRLSCAASGRTFGFYAMGWYRQAPGKERELVAGITQSGGSTYYADSVKGRFTISRDNAKNTVYLQMNSLKTEDTAVYYCATDYQQLDDYWGQGTQVTVSS,low polyreactivity
3,QVQLVESGGCLVQAGGSLRLSCAASGRTFSYYAMGWYRQAPGKERELVAAIDWSGSRTYYADSVKGRFTISRDNAKNTVYLQMNSLKPEDTAVYYCIADRTRGYQRYDYWGQGTQVTVSS,high polyreactivity
4,QVQLVESGGCLVQAGGSLRLSCAASGRTFYLYAMGWNRQAPGKEREFVARITFSGVSTYYADSVKGSFTISRDNAKNTVSLQMYRLKPEDTAVYYCNRVGHYGYSEGYYYWGQGTQVTVSS,high polyreactivity
5,QVQLVESGGCLVQAGGSLRLSCAASGRTSDGYAMGWYRQAPGKERELVAGITEGGGDTYYADSVKGRFTISRDNAKITDYLQMNSLKPEDTAVYYCNAGEGSRLPYDYWGQGTQVTVSS,low polyreactivity
6,QVQLVESGGCLVQAGGSLRLSCAASGSIFDAYDKGWYRQAPGKERELVAAISRSGASTYYADSVKGRFTISRDNAKNTVYLQMNSLKPEDTAVYSCAARDRQRVSYGYWGQGTQVTVTS,high polyreactivity
7,QVQLVESGGCLVQAGGSLRLSCAASGSIFDSNAMGWYRQAPGKERELVAAITWSGGRTYYADSVKGRFTISLDNAKNTVYLQMNSLKPEDTAVYYCAARKYTLFWPYDYWGQGTQVTVSS,high polyreactivity
8,QVQLVESGGCLVQAGGSLRLSCAASGSIFLFYAMGWYRHPPGKERELVAVIDTRASTTYYADSVKGRFTISRDNAKNTVYLQMNSLKPEDTAVYYCAAELQFTLYYSRPLLYQYYYWGQGTQVTVSS,high polyreactivity
9,QVQLVESGGCLVQAGGSLRLSCAASGSIFRYYAKGWYRQAPGKERELVAAIRVSTGSTSYADSVKGRFTISRDTAKNTVYLQMNSLKPEDTAFYYCNARSRQVIAYRQHNYWGQGTQVTVSS,high polyreactivity
10,QVQLVESGGCLVQAGGSLRLSCAASGSIFSRYDMGWYRQAPGKEREFVPRITQRGGSTYYADSVKGRFTISRDNAKNTVYLQMNTVKPEDTAVYYCYADHYRRQLAEDYWGQGTQVTVSS,low polyreactivity
11,QVQLVESGGCLVQAGGSLRLSCAASGSIFVYYAMGWYRQSPGKERELVAAISWSGGSTRYADSVKGRFTISRDNAKNTVYLQMNSLKPEDTAVYYCAAKRLGGGYWGQGTQVTVSS,high polyreactivity
12,QVQLVESGGCLVQAGGSLRLSCAASGSIFYKYAMGWYRQAPGKERELVAAITSGGRTTYADSVKGRFTISRDNAKNTVYLQMNSLKPEDTAVYYCAAVVFSRRYWVKFYYWGQGTQVNVSS,high polyreactivity
13,QVQLVESGGCLVQAGGSLRLSCAASGSIITWNAMVWYRQAPGKERELVAAIDWDGGSTYYADSVKGRFTISRDNAKNTVYLQMHILKPEDTAVYYCAATYGWYTVRYPSGHYYYWGQGTQVTVSS,low polyreactivity
14,QVQLVESGGCLVQAGGSLRLSCAASGSTFKRYAMGWYRQAPGKVGELVAAISKSGGSTYYADSVKGRFTISRDNAKNTDYLQMNCLNAEDTAVYYCAAGRSIGALYYGMDYWGEGTQVTVSS,high polyreactivity
15,QVQLVESGGCLVQAGGSLRLSCAASGSTFNFYAMGWYRQAPGKEREFVAAITSSGDSTYYADSVKGRFTISRDNAKNTVYLQMNSLKPEDTAVYYCAALTPRNRYRKFDYWGQGTQVTVSS,high polyreactivity
16,QVQLVESGGCLVQAGGSLRLSCAASGSTFTINVMGWYRQAPGKERELVAAINGGGRTNYADSVKGRFTISRDNAKNTVYLQMNSLKPEDTAVYYCAADGLSNVRQMDYWGQGTQVTVSS,low polyreactivity
17,QVQLVESGGCLVQAGGSLRLSCAASGSTFTTNAMGWYIQAPGKERELVAAISWSGTTTYYADSVKGRFTISRDNAKNTGYLQMNSLKPEDTAVYYCAAQVVSGTVAYLDFGYWGQGTQVTVSS,low polyreactivity
18,QVQLVESGGCLVQAGGSLRLSCAASGSTFWPYAMGWYRQAPGKERELVAAITSSGGSTYYADSVKGRFTISRDNAKNTVYLQMNSLKPEDTEVYYCAADWSNLGAYDYWGQGTQVTVSS,low polyreactivity
19,QVQLVESGGCLVQAGGSLRLSCAASGSTLGYYAMGWYRQAPGKERELVASIRWDTASTYYADSVKGRFTISRDNAKNTVYLQMNSLKPEDTAVYYCNAGRPRFYRSRWYYYGYGYWGQGTQVTVSS,high polyreactivity
20,QVQLVESGGCLVQAGGSLRLSCAASGSTLSYYAMGWYRQAPGKERELVAAINKSVTRTYYADSVKGRFTISRDNAKNTVYLQMNSLKPEDTAVYYCAASVPYYNGYYYNAYEYWGQGTQVTVSS,high polyreactivity
21,QVQLVESGGCLVQAGGSLRLSCASSGSTFSPNDMGWYRQAPGKESELVADISNYADSVKGRFTISRDNAKNTVYLQMNSLKPEDTAVYYCAAEWRGDRYRLYVVSWWYDYWGQGTQVTVSS,low polyreactivity
